How the values were obtained:
[1] = target: T1, recombinant human transferrin receptor 1 (human, UniProt P02786 89-760); test: ELISA, Fab-ASO300 conjugate; printed as 'DMPK oligo conjugate binding to hTfR1 (nM)'; Table 9 (thermal stability table); DMPK oligo conjugate, hTfR1
T1 construct: also called hTfR1; huTfR1

[2] = target: T2, recombinant cynomolgus monkey (Macaca fascicularis) transferrin receptor 1 (cynomolgus monkey (Macaca fascicularis), UniProt Q5RDH6 87-760 (Pongo abelii entry), limits assumed); test: ELISA, Fab-ASO300 conjugate; printed as 'DMPK oligo conjugate binding to cyno TfR1 (nM)'
T2 construct: also called cTfR1; cyno TfR1
T2 chain: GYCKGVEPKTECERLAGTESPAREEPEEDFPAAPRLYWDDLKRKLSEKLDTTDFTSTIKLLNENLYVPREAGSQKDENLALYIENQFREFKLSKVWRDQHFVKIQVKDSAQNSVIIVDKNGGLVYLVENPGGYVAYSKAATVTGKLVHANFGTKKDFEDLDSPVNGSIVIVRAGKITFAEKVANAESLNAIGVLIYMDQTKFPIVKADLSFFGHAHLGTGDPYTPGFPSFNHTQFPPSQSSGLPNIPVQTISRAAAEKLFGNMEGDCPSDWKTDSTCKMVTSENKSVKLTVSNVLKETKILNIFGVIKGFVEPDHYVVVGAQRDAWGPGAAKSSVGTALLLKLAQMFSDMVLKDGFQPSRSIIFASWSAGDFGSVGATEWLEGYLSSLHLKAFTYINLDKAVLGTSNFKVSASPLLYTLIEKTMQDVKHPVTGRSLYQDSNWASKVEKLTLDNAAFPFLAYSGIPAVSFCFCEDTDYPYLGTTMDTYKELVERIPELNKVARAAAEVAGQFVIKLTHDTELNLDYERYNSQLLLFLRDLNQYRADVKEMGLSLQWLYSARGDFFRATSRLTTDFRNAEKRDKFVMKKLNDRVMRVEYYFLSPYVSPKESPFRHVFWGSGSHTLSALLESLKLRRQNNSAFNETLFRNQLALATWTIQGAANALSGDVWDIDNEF

B1: 5H12 (VH5-C33Y/Vk4) Fab conjugated to DMPK-targeting oligonucleotide ASO300 (Fab, V domains shown)
VH: QVQLVQSGAEVKKPGASVKVSCKASGYSFTDYYINWVRQAPGQGLEWMGWIYPGSGNTRYSERFKGRVTITRDTSASTAYMELSSLRSEDTAVYYCAREDYYPYHGMDYWGQGTLVTVSS
VL: DIVMTQSPDSLAVSLGERATINCRASESVDGYDNSFMHWYQQKPGQPPKLLIFRASNLESGVPDRFSGSGSGTDFTLTISSLQAEDVAVYYCQQSSEDPWTFGQGTKLEIKR
modifications: ASO300 oligonucleotide covalently conjugated via linker of Formula (C); residue and chain not stated
notes: also called DMPK oligo conjugate
- EC50 [1]: 13.9 nM
- EC50 [2]: 13.9 nM
